Numbering of substitutions follows the chain as printed. Names and notes keep the numbering of the source.

Common to all, as to test: SEC; FSEC of ~10% of the protein dialysed into non-reducing buffers with the various ligands; 150 mM NaCl, 20 mM Tris-HCl pH 8.0, 1 mM C12M, lipid
For orientation: Size exclusion chromatography separates by hydrodynamic size, large species first.

Data set [1] concerns the target GluA2_(C589A-Thr) I211C (rat).
In data set [2] the target is GluA2_(C589A-Thr) I209C (rat).
Data set [3] has as its target GluA2_(C589A-Thr) G212C (rat).
For data set [4], the target named is GluA2_(C589A-Thr) V215C (rat).
Data set [5] concerns the molecule itself.

Take GluA2_(C589A-Thr) I211C (receptor): the stoichiometry N – broadly, a count of units in the complex or per binding partner – in data set [1] is 4.

GluA2_(C589A-Thr) I209C (receptor) had a stoichiometry N in data set [2] of 4.

Regarding GluA2_(C589A-Thr) G212C (receptor), the stoichiometry N in data set [3] stood at 4.

The molecule GluA2_(C589A-Thr) V215C (receptor) registered a stoichiometry N in data set [4] of 4.

B1: GluA2_(C589A-Thr) K663C (receptor, rat)
chain: VSSNSIQIGGLFPRGADQEYSAFRVGMVQFSTSEFRLTPHIDNLEVANSFAVTNAFCSQFSRGVYAIFGFYDKKSVNTITSFCGTLHVSFITPSFPTDGTHPFVIQMRPDLKGALLSLIEYYQWDKFAYLYDSDRGLSTLQAVLDSAAEKKWQVTAINVGNINNDKKDETYRSLFQDLELKKERRVILDCERDKVNDIVDQVITIGKHVKGYHYIIANLGFTDGDLLKIQFGGANVSGFQIVDYDDSLVSKFIERWSTLEEKEYPGAHTATIKYTSALTYDAVQVMTEAFRNLRKQRIEISRRGNAGDCLANPAVPWGQGVEIERALKQVQVEGLSGNIKFDQNGKRINYTINIMELKTNGPRKIGYWSEVDKMVVTLTELPSGNDTSGLENKTVVVTTILESPYVMMKKNHEMLEGNERYEGYCVDLAAEIAKHCGFKYKLTIVGDGKYGARDADTKIWNGMVGELVYGKADIAIAPLTITLVREEVIDFSKPFMSLGISIMIKKPQKSKPGVFSFLDPLAYEIWMCIVFAYIGVSVVLFLVSRFSPYEWHTEEFEDGRETQSSESTNEFGIFNSLWFSLGAFMQQGADISPRSLSGRIVGGVWWFFTLIIISSYTANLAAFLTVERMVSPIESAEDLSKQTEIAYGTLDSGSTKEFFRRSCIAVFDKMWTYMRSAEPSVFVRTTAEGVARVRKSKGKYAYLLESTMNEYIEQRKPCDTMKVGGNLDSKGYGIATPKGSSLGTPVNLAVLKLSEQGVLDKLKNKWWYDKGECGAKDSGSKEKTSALSLSNVAGVFYILVGGLGLAMLVALIEFCYKSRAEAKRMKVAKNPQNINPSSSQNSQNFATYKEGYNVYGIESVKIGLVPR
notes: signal peptide in the construct; AMPA receptor subunit GluA2, flip form (GluA2i), rat, NP_058957, full length including the native signal peptide; extra residues left from the thrombin cleavage site at the distal C-terminus after digestion; Single cysteine substitution in m1, LBD dimer-dimer interface; source: HEK293 GnTI- cells, baculovirus-transduced (BacMam), purified (streptactin resin, …)
Take B1: the “stoichiometry N” value in data set [5] worked out at 4.

B2: GluA2_(C589A-Thr) R628C (receptor, rat)
chain: B1 chain with R628C, C663K
notes: signal peptide in the construct; AMPA receptor subunit GluA2, flip form (GluA2i), rat, NP_058957, full length including the native signal peptide; extra residues left from the thrombin cleavage site at the distal C-terminus after digestion; Single cysteine substitution in m1, LBD-TMD linker region (M3-S2 linker); source: HEK293 GnTI- cells, baculovirus-transduced (BacMam), purified (streptactin …)
As for B2, the “stoichiometry N” value in data set [5] was 4.

B3: GluA2_(C589A-Thr) I664C (receptor, rat)
chain: B1 chain with C663K, I664C
notes: as for B1
As for B3, the “stoichiometry N” value in data set [5] worked out at 4.

B4: GluA2_(C589A-Thr) A665C (receptor, rat)
chain: B1 chain with C663K, A665C
notes: as for B1
For B4, the “stoichiometry N” value in data set [5] worked out at 4.

B5: GluA2_(C589A-Thr) (receptor, rat)
chain: B1 chain with C663K
notes: signal peptide in the construct; AMPA receptor subunit GluA2 (GluRB, GluR2), flip form (GluA2i), rat, NP_058957, full length including the native signal peptide; extra residues left from the thrombin cleavage site (GLVPRG) at the distal C-terminus after digestion; Tetrameric membrane protein in C12M detergent with lipid; Purified under reducing conditions; also called WT; parent; source: HEK293 …
For the molecule B5, the “stoichiometry N” value in data set [5] turned out to be 4.

B6: GluA2_(C589A-Thr) A621C (receptor, rat)
chain: B1 chain with A621C, C663K
notes: signal peptide in the construct; AMPA receptor subunit GluA2, flip form (GluA2i), rat, NP_058957, full length including the native signal peptide; extra residues left from the thrombin cleavage site at the distal C-terminus after digestion; source: HEK293 GnTI- cells, baculovirus-transduced (BacMam), purified (streptactin resin, thrombin digestion, SEC Superose 6); not shown: eGFP, C-terminal, …
Consider B6, for which, in data set [5], the “stoichiometry N” value worked out at 4.

The record behind these values is article PMC4703952, “Probing Intersubunit Interfaces in AMPA-subtype Ionotropic Glutamate Receptors” (Scientific Reports, 2016).
